Measurements reported in patent publication US12460006B2, “Antibodies against integrin alpha 11 beta 1” (Momenta Pharmaceuticals, Inc., priority 2019, dated 2025).
Entries after “also recorded” stand apart in the source; their conditions may differ.

T1: I domain of α11β1 (Homo sapiens, UniProt Q9UKX5)
T1 construct: An in-house generated I domain of α11β1 was used; made in house
T1 sequence (Q9UKX5 164-345 limits assumed): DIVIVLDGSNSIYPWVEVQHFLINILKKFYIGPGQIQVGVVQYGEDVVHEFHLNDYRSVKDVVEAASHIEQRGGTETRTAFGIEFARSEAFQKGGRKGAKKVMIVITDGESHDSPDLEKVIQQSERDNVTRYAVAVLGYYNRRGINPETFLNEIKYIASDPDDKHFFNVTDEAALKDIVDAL


Tests used:
α1β1, α2β1 and/or α10β1 = experiment: Counter-screen for cross-reactivity to other collagen receptors; format: binding, human; conditions: for Off Target: cross-reactivity to α1β1, α2β1, α10β1
Experimental: Wistar rats were immunized with recombinant human α11β1 protein. An enzyme-linked immunosorbent assay (ELISA) was used to test an immune response against target human and mouse proteins. Subsequently, cell fusion (by electro fusion) was performed with animals that produced a good immune response. All fused cells were plated in a 96-well plate and supernatants were screened by ELISA against soluble human and mouse α11β1. Positive clones were counter-screened against human α1β1, α2β1 and α10β1. […] Purified antibodies were then generated from the selected clones and heavy chain and light chain variable domain sequences were obtained from each purified antibody.
10 mice from 5 different strains were immunized with an appropriate mixture of human α11β1, mouse α11β1 and tolerance breaking protein. Plasma titers were evaluated by ELISA against a mixture of human and mouse α11β1. Popliteal, inguinal, and iliac lymph nodes were collected. ELISA-positive anti-human/mouse α11β1 hybridomas were expanded and subjected to a secondary screen against human and mouse α11β1, control HIS protein, and a counter-screen was performed against human […], α2β1 and α10β1. Supernatant IgG concentration was sufficient for functional screening. Selected hybridomas satisfying all the criteria were cloned and clonal hybridomas were confirmed by ELISA against human and mouse α11β1 and subsequently scaled-up and IgGs were purified. Heavy and light chain variable regions of selected hybridomas were then sequenced.
α11β1 belongs to a family of collagen receptors and has a relatively high homology to them. Therefore, the novel antibodies of this invention were counter-screened against α1β1, α2β1 and/or α10β1. Table 2 includes results of cross-reactivity to the other receptors.

I domain of α11β1 = molecular target: T1, I domain of α11β1; experiment: ELISA binding to in-house generated I domain of α11β1; conditions: for binding to I domain of α11β1 (high, medium, low): ELISA; for I Domain binding: Yes/No
Experimental: 0.25 μg/mL of target antigen (recombinant human or mouse α11β1) was plated in a 96-well plate over night at 4° C. Plates were washed (PBS with 0.1% Tween-20), blocked (PBS with 2% BSA and 0.05% Tween-20) for 1 hour at room temperature and incubated with a range of antibody concentrations for 1 hour at room temperature. Subsequently, plates were washed and incubated with biotinylated anti-rabbit/mouse/human IgG in a 1:1000 dilution buffer and incubated for 1 hour at room temperature. After washing the plates, Streptavidin HRP was added at 1:200 in dilution buffer and incubated for 1 hour at room temperature. Ultra TMB ELISA substrate solution was added and the plates incubated for 5 minutes on a plate shaker. The reaction was stopped by adding stop solution to each well and plates were read at 450 nm.
22 Data was also collected to determine whether antibodies of interest bind to the I domain of α11β1. An in-house generated I domain of α11β1 was used. […] Mouse antibodies 10-F23, 10-L15, 7-O8, 6-A12, 9-G05 and 9-E16 and rabbit antibodies 7-H12 and 2-D3 were also tested for binding against the in-house generated α11031 domain. FIGS. 3A and 3B show graphs illustrating binding data from exemplary mAbs.

[1] = test system: human pulmonary fibroblasts (HPFs); experiment: FACS antibody binding to human pulmonary fibroblasts; conditions: binding Yes/No
Experimental: Human Pulmonary Fibroblasts (ScienCell) were cultured in complete Fibroblast Growth Medium (ScienCell) until 80% confluent in T-150 flasks. Cells were washed and harvested using Accutase. Cells were seeded into T-150 flasks at 7,500 cells/cm^2 in complete FGF and cultured for 72 hours. Cells were then washed and starved in serum reduced medium for 24 hours. After starvation, cells were treated with TGFβ-1 (R&D Systems) for 72 hours. Cells were harvested using Accutase and seeded in 96-well conical bottom plates. Cells were blocked with Heat Inactived Fetal Bovine Serum (Gibco) for 30 minutes at 4° C. Cells were then incubated with anti-α11 antibodies at the doses described in each figure for 30 minutes at 4° C. A human anti-α11 antibody (Creative BioLabs) was included as a positive control as well as the appropriate IgG isotype negative controls. Cells were washed twice and incubated with PE conjugated secondary antibodies specific to the IgG class of the anti-α11 antibodies being tested for 30 minutes at 4° C. Cells were washed twice and fixed in 1% PFA for 30 minutes. Cells were acquired on a FACS Verse […]. Data were analyzed by gating on single cells and determining the geometric Mean Fluorescence Intensity (gMFI) in the PE channel for each sample.
Binding to a physiologically relevant primary human cell type was also tested. Human pulmonary fibroblasts (HPF) and TGFβ treatment were used to induce a fibroblast-to-myofibroblast transition (FMT), giving rise to myofibroblasts (MF). […] Additionally, HPFs express α11 and α2β1, other collagen binding receptors, which means that HPFs can be to test cross-reactivity of antibodies of interest.

Molecule	Off Target (α1β1, α2β1 and/or α10β1)	binding to I domain of α11β1 (high, medium, low) (I domain of α11β1)	I Domain binding (I domain of α11β1)	I-domain binder (I domain of α11β1)	HPF FACS [1]	cross-reaction with other collagen receptors (α1β1, α2β1 and/or α10β1)
8H8E9: rat anti-α11β1 mAb; VH SEQ ID NO: 149, VL SEQ ID NO: 150 (antibody, V domains shown) VH: MAVLVLLLCLVTFPSCALSQVQLKESGPGLVQPSQTLSLTCTVSGFSLTSNSVSWVRQAPGKGLEWMGAIWSGGSTDYNSALKSRLSISRDTSKSQVFLKMNSLQTEDTAIYFCTRSHWEPFDYWGQGVMVTVSS VL: MESQTQALISLLLWVYGTCGDIVMTQSPFSLAVSEGEMVTINCKSSQGLLSSGNQKNYLAWYQQRPGQSPKLLIYYASTRQSGVPDRFIGGGSGTDFTLTISDVQAEDLADYYCLQHYSYPPTFGSGTKLEIK	No	medium	No			
6E5C11: rat anti-α11β1 mAb; VH SEQ ID NO: 151, VL SEQ ID NO: 152 (antibody, V domains shown) VH: MAVLVLLLCLVTFPSCALSQVQLRESGPGLVQPSQTLSLTCTVSGFSLTSNSVTWVRQPPGKGLEWMGAIWSDGSTDYNSTLKSRLSISRDTSKSQVFLKMSSLQTEDTAIYFCTRSHWEPFDYWGQGVMVTVSS VL: MESQTQALISLLLWVYGTCGDIVMTQSPLSLAVSEGETVTMNCKSSQSLFSSGNQKNYLAWYQQKPGQSPKLLIYYASTRQSGVPDRFIGSGSGTDFTLTISDVQTEDLADYYCLQHYNYPPTFGSGTKLEIK	No	low	No			
9-G05: mouse anti-α11β1 mAb; VH SEQ ID NO: 103, VL SEQ ID NO: 104 (antibody, V domains shown) VH: EVQLQQSGPELVKPGASVKIPCKASGYTFPDYNMDWVKQSHGKSLEWIGYINPDNGGTIYNQKFKGKATLTVDKSSSTAYMELRSLTSEDTAVYYCARLDSSGYGYYAMDYWGQGTSVTVSS VL: DIVLTQSPASLAVSLGQRATISCRASESVDNYGISFMHWYQQKPGQPPKLLIYRASNLDSEIPARFSGSGSRTDFTLTIDPVETDDVATYYCQQSYKDPRTFGGGTKLEIK	No		Yes	I domain binders; also recorded: I-domain binders; also recorded: bound the I domain	No	
40G10H11: rat anti-α11β1 mAb; VH SEQ ID NO: 157, VL SEQ ID NO: 158 (antibody, V domains shown) VH: MDIRLSLGFLVLFIKGDQCAVQLVESGGGLVQPGRSLKLSCAASRITFTDYYMAWVRQAPTKGLEWVATISSDGGDTFYRDSVKGRFTISRDNAKSTLYLQMVSLRSEDTATYYCSTDRGAQFGYWGQGTLVTVSS VL: MAPVQLLGLLLIWLPAMRCDIQMTQSPSFLSASVGDRVSINCKASQNVHENLNWYQQKLGEAPKRLIYNTNNLQTGIPSRFSGSGSGADYTLTISSLQPEDFATYFCLQHNAFPYTFGPGTKLELK	Yes (all)		No	not found to be an I-domain binder; also recorded: neither of the antibodies was found to be an I-domain binder		does cross-react with other collagen receptors (α1β1, a2β1 and a10β1)
8-P20: mouse anti-α11β1 mAb; VH SEQ ID NO: 105, VL SEQ ID NO: 106 (antibody, V domains shown) VH: KVMLVESGGALVKPGGSLKLSCVASGFTFSNYAMSWVRQTPEKRLEWVATISSGGYYTYYPDSVKGRFTISRDNARNTLFLQMSSLRSEDTAMFYCAREDDYGRYSYTMDYWGQGTSVTVSS VL: DVVMTQTPLSLPVSLGDQVSISCRCSQSLVHSNGNTYLHWYLQKPGQSPQLLIYKISNRFSGVPDRFSGSGSGTDFTLKISRVEAEDLGVYFCSQSTHVPYTFGGGTELEIK	No		No		No	
8-J17: mouse anti-α11β1 mAb; VH SEQ ID NO: 113, VL SEQ ID NO: 114 (antibody, V domains shown) VH: QVQLQQSGAELAKPGASVKMSCKASGYTFTNYWMHWVKQRPGQGLEWIGYINPNNGYTEYNQRFKDKATLTADRSSTTAYMQLSSLTSEDSAVYYCARSDIITTDYWGQGTTLTVSS VL: DVVMTQTPLSLPVSLGDQASISCRSSQSLVYSNGNTYLHWYLQKPGQSPKLLIYKVSNRFSGVPDRFSGSGSGTDFTLKISRVEAEDLGVYFCSQSTHVPWTFGGGTKLEIK	Yes		No		No	
8-I14: mouse anti-α11β1 mAb; VH SEQ ID NO: 109, VL SEQ ID NO: 110 (antibody, V domains shown) VH: EVQLQQSGPELVKPGASVKKSCKASGYTFTDYYMHWVKQKPGQGLEWIGKIYPGSGNTHYNEKFKGKATLTADKSSSTAYMQLSSLTSEDSAVYFCATNYYGYRAMNYWGQGSSVTVSS VL: DIHLTQSPSSLSASLGERISLTCRASQDIYISLNWFQQKPDGTIKLLIYGTSSLDSGVPKRFSGSRSGSDYSLTISSLESEDFADYYCLQYASSPYTFGGGTKLEIK	No		No		No	
18E10F10: rat anti-α11β1 mAb; VH SEQ ID NO: 155, VL SEQ ID NO: 156 (antibody, V domains shown) VH: MDIRLSLVFLVLFMKGVQCEVQLVESGGGLVQPGRSLKLSCAASRFTFSDYNMAWVRQAPKKGLEWVATIYHDDSGSYYRDSVKGRFTISRNNAKSTLYLQMDSLRSEDMATYYCARHNNGFDYWGQGVMVTVAS VL: MKWPVRLLVLFFWIPASGGDVVMTQTPVSLPVRLGGQASISCRSSQSLVHSNGNTYLHWYLQKPGQSPQLLINRVSNRFSGVPDRFSGSGSGTDFTLKINRVEPEDLGDYYCLQSTHFPLTFGSGTKLETK	No		No			
79E3E3: rat anti-α11β1 mAb; VH SEQ ID NO: 145, VL SEQ ID NO: 146 (antibody, V domains shown) VH: MDWLWNLLFLMVVAQSAQAQIQLVQSGPEVKKPGESVKISCKASGYTFTDYAMNWVKQAPGNGLKWMGWINTQTGKPTYADDFKQRFVFSLETSARTTYLQINNLNIEDTATYFCTRLGTGNTKGFAYWGQGTLVTVSS VL: MESQTHVLISLLLCVSGTCGDILINQSPASLTVSAGERVTMSCKSSQSLLYSENNQDYLAWYQQKPGQFPKLLIYGASNRHTGVPDRFTGSGSGTDFTLTISSVQAEDLADYYCEQTYRYPFTFGSGTKLEIK	No	high	Yes	found to be an I-domain binder	No	
